{"source": "paper PMC10388305", "about": "“Synthesis and Evaluation of a Monomethyl Auristatin E—Integrin αvβ6 Binding Peptide–Drug Conjugate for Tumor Targeted Drug Delivery” (Journal of Medicinal Chemistry, 2023)", "key": {"[1]": {"test": "Serum stability in human serum", "format": "in vitro ADME", "conditions": "37 °C, ethanol precipitation, radio RP-HPLC", "protocol": "The serum stability of [^64Cu]PDC-1 was measured in both human and mouse serum at 37 °C at 1, 4, and 24 h.\nMouse serum or human serum (0.5 mL) was combined with an aliquot of [^64Cu]PDC-1 (≤25 μL, 3.9–4.7 MBq) and incubated at 37 °C. At each time point (1, 4, and 24 h), an aliquot (50–200 μL) was taken, proteins precipitated with absolute ethanol and removed by centrifugation at 1500g for 4 min. The ethanol solution was diluted with water (1 mL) and analyzed by RP-HPLC."}, "[2]": {"test": "Blocking biodistribution, paired DX3puroβ6/DX3puro model", "format": "in vivo, mice", "conditions": "female, athymic nude, mouse, iv, total radioactivity, 4 h p.i., DOTA-2 (50 mg/kg, 205 nmol) i.v. 10 min prior, γ-counter, mean ± SD, n = 2", "protocol": "Aliquots of the formulated [^64Cu]PDC-1 in isotonic 0.9% saline (4.81–5.74 MBq, 1.7–2.1 μg, 0.26–0.31 nmol, 100 μL, pH 7.2) were injected i.v. as described above. Following the conscious uptake period, the mice were anesthetized (5% isoflurane), euthanized, and dissected (n ≥ 3/model/time point [4, 24, and 48 h]; the 48 h time point also included the imaging animals sacrificed after the PET scans). Tissues were collected, washed, weighed, and radioactivity measured in a γ-counter. Calibrated, decay-corrected radioactivity was expressed as the percentage of injected dose per gram of tissue (% ID/g). Data are reported as mean ± SD. The mean weights and standard deviation of the DX3puroβ6/DX3puro paired tumor model biodistribution mice were 24.3 ± 1.4 g at 4 h, 28.2 ± 2.9 g at 24 h, and 27.7 ± 2.6 g at 48 h. The mean weights and standard deviation of the BxPC-3 tumor model biodistribution mice were 25.1 ± 1.9 g at 4 h, 27.0 ± 1.1 g at 24 h and 27.1 ± 3.2 g at 48 h. For in vivo blocking studies, DOTA-2 (50 mg/kg, 205 nmol, 1.4 mg in 100 μL 0.9% saline) was injected i.v. into two animals/tumor model 10 min prior to [^64Cu]PDC-1. The animals were sacrificed after 4 h, tissues collected, washed, weighed, and radioactivity measured in a γ-counter. The mean weights and standard deviation for the blocking mice were 24.6 ± 0 and 27.9 ± 0.3 g for the DX3puroβ6/DX3puro paired and BxPC-3 tumor models, respectively.\nBlocking biodistribution data of [64Cu]PDC-1 in paired DX3puroβ6/DX3puro and BxPC-3 tumor models.\nTumor Model DX3puroβ6/DX3puro BxPC-3\nTable S6. Blocking biodistribution data of [ 64Cu]PDC-1 in paired DX3puroβ6/DX3puro and BxPC-3 tumor\nmodels. Tissue uptake is expressed as the mean of the percentage of injected dose per gram of tissue ±\nSD (n = 2/model, n/a = not applicable. P = 0.53 for DX3puroβ6 vs. DX3puro; P = 0.52 for BxPC-3 vs."}}, "note": "Read-outs that look alike come from different tables or passages of the source.", "data": [{"smiles": "CC[C@H](C)[C@@H]([C@@H](CC(=O)N1CCC[C@H]1[C@H](OC)[C@@H](C)C(=O)N[C@H](C)[C@@H](O)c1ccccc1)OC)N(C)C(=O)[C@@H](NC(=O)[C@H](C(C)C)N(C)C(=O)OCc1ccc(NC(=O)[C@H](CCCNC(N)=O)NC(=O)[C@@H](NC(=O)CCOCCOCCNC(=O)CCN2C(=O)CC(SC[C@H](NC(=O)CN3CCN(CC(=O)O)CCN(CC(=O)O)CCN(CC(=O)O)CC3)C(=O)NCCOCCOCCOCCOCCOCCOCCOCCOCCOCCOCCOCCOCCOCCOCCOCCOCCOCCOCCOCCOCCOCCOCCOCCOCCOCCOCCOCCOCCC(=O)N[C@@H](CC(N)=O)C(=O)N[C@@H](C)C(=O)N[C@H](C(=O)N3CCC[C@H]3C(=O)N[C@@H](CC(N)=O)C(=O)N[C@@H](CC(C)C)C(=O)N[C@@H](CCCNC(=N)N)C(=O)NCC(=O)N[C@@H](CC(=O)O)C(=O)N[C@@H](CC(C)C)C(=O)N[C@@H](CCC(N)=O)C(=O)N[C@H](C(=O)N[C@@H](CC(C)C)C(=O)N[C@@H](C)C(=O)N[C@@H](CCC(N)=O)C(=O)N[C@@H](CCCNC(=N)N)C(=O)N[C@H](C(=O)N[C@@H](C)C(=O)N[C@@H](CCCNC(=N)N)C(=O)N[C@H](C(=O)NCCOCCOCCOCCOCCOCCOCCOCCOCCOCCOCCOCCOCCOCCOCCOCCOCCOCCOCCOCCOCCOCCOCCOCCOCCOCCOCCOCCOCCC(N)=O)[C@@H](C)O)C(C)C)C(C)C)C(C)C)C2=O)C(C)C)cc1)C(C)C", "note": "(some centres unmarked) [[^64Cu]PDC-1, metal not drawn]", "values": [{"measurement": "remaining at 1 h", "setting": "[1]; 1 h", "value": "> 98", "unit": "%"}, {"measurement": "remaining at 4 h", "setting": "[1]; 4 h", "value": "> 98", "unit": "%"}, {"measurement": "remaining at 24 h", "setting": "[1]; 24 h", "value": 89, "unit": "%"}, {"measurement": "tissue uptake at 4 h", "setting": "[2]; DX3puro (αvβ6 −) tumor, read-out: Tumor (αvβ6 −) DX3puro uptake, blocked", "value": "0.42 ± 0.04", "unit": "%ID/g"}, {"measurement": "tissue uptake at 4 h", "setting": "[2]; DX3puroβ6 (αvβ6 +) tumor, read-out: Tumor (αvβ6 +) DX3puroβ6 uptake, blocked", "value": "0.39 ± 0.04", "unit": "%ID/g"}, {"measurement": "tissue uptake at 4 h", "setting": "[2]; blood, read-out: Blood uptake, blocked", "value": "0.08 ± 0.02", "unit": "%ID/g"}, {"measurement": "tissue uptake at 4 h", "setting": "[2]; bone, read-out: Bone uptake, blocked", "value": "0.1 ± 0.03", "unit": "%ID/g"}, {"measurement": "tissue uptake at 4 h", "setting": "[2]; brain, read-out: Brain uptake, blocked", "value": 0.02, "unit": "%ID/g"}, {"measurement": "tissue uptake at 4 h", "setting": "[2]; gall bladder, read-out: Gall Bladder uptake, blocked", "value": "0.28 ± 0.4", "unit": "%ID/g"}, {"measurement": "tissue uptake at 4 h", "setting": "[2]; heart, read-out: Heart uptake, blocked", "value": "0.17 ± 0.03", "unit": "%ID/g"}, {"measurement": "tissue uptake at 4 h", "setting": "[2]; kidney, read-out: Kidney uptake, blocked", "value": "36.4 ± 5.43", "unit": "%ID/g"}, {"measurement": "tissue uptake at 4 h", "setting": "[2]; large intestines, read-out: Large Intestines uptake, blocked", "value": "0.51 ± 0.1", "unit": "%ID/g"}, {"measurement": "tissue uptake at 4 h", "setting": "[2]; liver, read-out: Liver uptake, blocked", "value": "1.39 ± 0.45", "unit": "%ID/g"}, {"measurement": "tissue uptake at 4 h", "setting": "[2]; lung, read-out: Lung uptake, blocked", "value": "0.39 ± 0.09", "unit": "%ID/g"}, {"measurement": "tissue uptake at 4 h", "setting": "[2]; muscle, read-out: Muscle uptake, blocked", "value": 0.04, "unit": "%ID/g"}, {"measurement": "tissue uptake at 4 h", "setting": "[2]; pancreas, read-out: Pancreas uptake, blocked", "value": "0.08 ± 0.01", "unit": "%ID/g"}, {"measurement": "tissue uptake at 4 h", "setting": "[2]; skin, read-out: Skin uptake, blocked", "value": "0.29 ± 0.02", "unit": "%ID/g"}, {"measurement": "tissue uptake at 4 h", "setting": "[2]; small intestines, read-out: Small Intestines uptake, blocked", "value": "0.36 ± 0.02", "unit": "%ID/g"}, {"measurement": "tissue uptake at 4 h", "setting": "[2]; spleen, read-out: Spleen uptake, blocked", "value": "0.19 ± 0.01", "unit": "%ID/g"}, {"measurement": "tissue uptake at 4 h", "setting": "[2]; stomach, read-out: Stomach uptake, blocked", "value": "0.27 ± 0.06", "unit": "%ID/g"}]}]}
